The values that follow come from patent US20100136580A1 (Genentech, published 2010).

No end group written: not given here.

Assay [1] addresses DvlPDZ domain (endogenous Dvl in the treated cells). The experiment in a line: cell-based or functional assay.
Assay [2] addresses T1, GST-Dvl2PDZ fusion protein (human, UniProt O14641 248-364).
T1 construct: range 248-364; Made with the pGEX E. coli expression system; also called GST-PDZ fusion protein; not shown: glutathione S-transferase (GST) encoded by plasmid pGEX
T1 sequence (looked up): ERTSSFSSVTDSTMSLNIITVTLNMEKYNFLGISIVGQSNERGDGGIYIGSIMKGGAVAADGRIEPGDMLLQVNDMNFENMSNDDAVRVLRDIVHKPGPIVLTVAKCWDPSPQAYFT
The experiment in a line: competition ELISA; GST-Dvl2PDZ (600 nM) binding to immobilized biotin-KWYGWL. How it is done: Affinity assays-The binding affinities of peptides for Dvl2PDZ were determined as IC₅₀ values using a competition ELISA, as previously described. The IC₅₀ value was defined as the concentration of peptide that blocked 50% of PDZ domain binding to immobilized peptide. Assay plates were prepared by immobilizing an amino-terminally biotinylated peptide (KWYGWL_-COOH) (SEQ ID NO: 169) on Maxisorp immunoplates coated with neutravidin and blocked with BSA. A fixed concentration of GST-PDZ fusion protein (600 nM) in PBS, 0.5% BSA, 0.1% Tween 20 (PBT buffer) was preincubated for 1 h with serial dilutions of peptide and then transferred to the assay plates. After 15 min incubation, the plates were washed with PBS, 0.05% Tween 20, incubated with a mixture of anti-GST antibody (0.5 μg/m1) and horseradish peroxidase/rabbit anti-mouse IgG antibody conjugate (1:2000 dilution) in PBT buffer, washed again, and detected with TMB peroxidase substrate.

Assay [3] deals with T2, purified Dvl2PDZ domain polypeptide (human, UniProt O14641 248-364).
T2 construct: range 248-364; As used in the fluorescence polarization assay; also called DvlPDZ domain
T2 sequence (looked up): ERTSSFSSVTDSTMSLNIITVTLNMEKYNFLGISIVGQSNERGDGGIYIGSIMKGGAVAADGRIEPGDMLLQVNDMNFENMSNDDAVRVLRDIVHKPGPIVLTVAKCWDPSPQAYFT
Description: fluorescence polarization competition; 10 nM FAM-KWYGWL probe, 1 µM Dvl2PDZ. How it is done: (§1) The binding affinities of synthetic peptides were also measured by Flourescence polarization assay. Serial dilution of purified Dvl2PDZ domain polypeptide (1-10 μM) was incubated with 10 nM probe peptide (FAM-KWYGWL-COOH) (SEQ ID NO: 169) in PBS, 0.1% Triton X100 as 30 μl volume in 96-well black HE96 plates (LJL Biosystem, Inc, Calif.), and incubated for 15 minutes at room temperature. Polarization measurements were performed in Analyst platereader (LJL Biosystems, Inc., Sunnyvale, Calif.). […] Competition experiments were performed by addition of serial dilution of the free peptides (0-500 μM) to solution with 10 nM probe and 1 μM Dvl2PDZ. The polarization was measured and IC50 values were derived as described above. Kᵢ values were calculated as described previously.

Assay [4] has as its target T2, purified Dvl2PDZ domain polypeptide. Description: fluorescence polarization, direct titration of Dvl2PDZ against 10 nM probe. How it is done:
as §1

Assay [5] shares this target. The experiment in a line: fluorescence polarization competition. The procedure: as §1
Flourescence polarization assay was used to measure the affinity of two internal peptide ligands N2 and N3 to DvlPDZ domain.

B1: Ac-… (DVLp_C) (peptide)
peptide: Ac-RQIKIWFQNRRMKWKKKWYGWL
In assay [1], B1 showed an inhibition of Wnt3a-stimulated transcriptional activity (TopGlow assay, HEK293 cells) of 50%.

B2: Peptide D3 (WKWYGWL) (peptide)
peptide: Ac-WKWYGWL
notes: synthetic peptide; D1 with a Trp extension at position -6
Consider B2, for which, in assay [2], the IC50 is 140 nM.

B3: Peptide D4 (WKWYGWF) (peptide)
peptide: Ac-WKWYGWF
notes: synthetic peptide; D2 with a Trp extension at position -6
As for B3, the IC50 in assay [2] was 310 nM.

B4: Peptide N2 (GWKDYGWIDG) (peptide)
peptide: Ac-GWKDYGWIDG-NH2
notes: synthetic internal peptide ligand
In turn, B4 yielded a Ki in assay [3] of 1210 nM. This counts as single-digit micromolar.

B5: Peptide D1 (KWYGWL-COOH) (peptide)
peptide: Ac-KWYGWL-OH
notes: synthetic peptide
Turning to B5, the Ki in assay [3] amounted to 725 nM. In assay [2], the IC50 amounted to 1340 nM.

B6: Peptide D2 (KWYGWF) (peptide)
peptide: Ac-KWYGWF
notes: synthetic peptide; D1 with Leu to Phe at position 0
Take B6: the IC50 in assay [2] worked out at 930 nM.

B7: Peptide D5 (KGFGML-COOH), hexapeptide of the C-terminal sequence of human ubiquitin protein ligase E3A (UBE3A) (peptide)
peptide: Ac-KGFGML-OH
notes: synthetic peptide
For the molecule B7, the IC50 in assay [2] worked out at 243000 nM.

B8: probe peptide (FAM-KWYGWL-COOH) (peptide)
peptide: {FAM}-KWYGWL-OH
notes: fluorescence polarization probe, 10 nM
B8 yielded a Kd in assay [4] of 536 nM. This counts as sub-micromolar.

B9: Peptide N3 (GEIVLWSDIPG) (peptide)
peptide: Ac-GEIVLWSDIPG-NH2
notes: as for B4
Regarding B9, the “fold lower affinity than D1” value in assay [5] came out at 6 fold. The molecule also yielded a Ki in assay [3] of 4620 nM.
